Assay results: patent US20140369978A1
Positions count from the first letter of the chain named. In names and notes the source's numbering stands.

B1: recombinant human GDF-5 wild type (ligand)
chain: APLATRQGKRPSKNLKARCSRKALHVNFKDMGWDDWIIAPLEYEAFHCEGLCEFPLRSHLEPTNHAVIQTLMNSMDPESTPPTACVPTRLSPISILFIDSANNVVYKQYEDMVVESCGCR
B2: recombinant human GDF-5 mutant I449V (ligand)
chain: B1 chain with I68V, A84C
B3: human GDF-5 mutant M412V (ligand)
chain: B1 chain with M31V, A84C
B4: recombinant human GDF-5 mutant S439E (ligand)
chain: B1 chain with S58E, A84C
B5: human GDF-5 mutant W417F (ligand)
chain: B1 chain with W36F, A84C
B6: human GDF-5 mutant W417R (ligand)
chain: B1 chain with W36R, A84C
B7: recombinant human GDF-5 mutant R399M (ligand)
chain: B1 chain with R18M, A84C
B8: recombinant human GDF-5 mutant W414R (ligand)
chain: B1 chain with W33R, A84C
B9: human GDF-5 mutant S439K (ligand)
chain: B1 chain with S58K, A84C
B10: recombinant human GDF-5 mutant R399E (ligand)
chain: B1 chain with R18E, A84C
B11: human GDF-5 mutant R438K (ligand)
chain: B1 chain with R57K, A84C

The binders below were run against Fc-fusion protein receptor ectodomain of BMPR-IB (assay: ratio of Biacore KDs, BMPR-IA as reference; measurement 2).

| fold higher IB affinity over IA, KD(IA): KD(IB) [fold] | Binder |
| --- | --- |
| 40 | B1 |
| 219 | B2 |
| 333 | B3 |
| 581 | B4 |
| 587 | B5 |
| 2650 | B6 |

These binders were tested against Fc-fusion protein receptor ectodomain of BMPR-IB (assay: ratio KD(IA):KD(IB) from Biacore, relative to wild type).

| fold higher IB affinity over IA compared to WT [fold] | Binder |
| --- | --- |
| 1 | B1 |
| 1.8 | B7 |
| 5.5 | B2 |
| 8.3 | B3 |
| 14.5 | B4 |
| 5.5 | B8 |
| 19.7 | B9 |
| 14.7 | B5 |
| 56.2 | B6 |
| 1.1 | B10 |
| 5.9 | B11 |

Each binder was assayed against Fc-fusion protein receptor ectodomain of BMPR-II (assay: SPR (Biacore T100), receptor ectodomain-Fc on protein G chip, equilibrium binding (KD eq)).

| Kd [nM] | Binder |
| --- | --- |
| 32 | B1 |
| 32 | B7 |
| 10 | B9 |
| 32 | B10 |
| 32 | B11 |

Each binder was assayed against Fc-fusion protein receptor ectodomain of BMPR-IA (assay: SPR (Biacore T100), receptor ectodomain-Fc on protein G chip, kinetic 1:1 fit; measurement 1).

| Kd [nM] | Binder |
| --- | --- |
| 1 | B1 |
| 0.54 | B7 |
| 20.3 | B8 |
| 43.4 | B9 |
| 22.5 | B10 |
| 32.5 | B11 |

The binders below were run against Fc-fusion protein receptor ectodomain of BMPR-IB in the same assay as above.

| Kd [nM] | Binder |
| --- | --- |
| 0.008 | B1 |
| 0.0025 | B7 |
| 0.03 | B8 |
| 0.01 | B9 |
| 0.172 | B10 |
| 0.045 | B11 |

Each binder was assayed against Fc-fusion protein receptor ectodomain of BMPR-IB (assay: ratio of Biacore KDs, BMPR-IA as reference; measurement 1).

| fold higher IB affinity over IA, KD(IA): KD(IB) [fold] | Binder |
| --- | --- |
| 122 | B1 |
| 216 | B7 |
| 668 | B8 |
| 2400 | B9 |
| 130 | B10 |
| 717 | B11 |

Each binder was assayed against Fc-fusion protein receptor ectodomain of BMPR-IA (assay: SPR (Biacore T100), receptor ectodomain-Fc on protein G chip, kinetic 1:1 fit; measurement 2).

| Kd [nM] | Binder |
| --- | --- |
| 1.1 | B1 |
| 5.7 | B2 |
| 13 | B3 |
| 25 | B4 |
| 27 | B5 |
| 98 | B6 |

The binders below were run against Fc-fusion protein receptor ectodomain of BMPR-IB in the same assay as above.

| Kd [nM] | Binder |
| --- | --- |
| 0.027 | B1 |
| 0.026 | B2 |
| 0.039 | B3 |
| 0.043 | B4 |
| 0.046 | B5 |
| 0.037 | B6 |
